Test results: the supplement of paper PMC10567573

B1: OAS1 (parent)
chain: TPAKSLDKFIEDYLLPDTCFRMQI
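Also: lentivirally expressed fusions sorted by FACS into six bins by GFP to DsRed ratio, PSI derived from sequencing read proportions per bin multiplied by bin number.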

Variants of: B1
Test: protein stability index of a GFP-peptide fusion (GPS, HEK-293T) (PSI 1-6); higher = more stable
Settings: c terminus: a fixed tail appended
Work on R21Q yielded a protein stability index of 3.37. Variant R21S has a protein stability index of 3.4. For R21P, the protein stability index was 1.31. R21T showed a protein stability index of 3.86. For R21L, the protein stability index was 3.64. With R21G the protein stability index was 2.33. In the case of R21N, the protein stability index is reported as 2.73. Work on R21M yielded a protein stability index of 2.31. For R21K, the protein stability index was 2.46. With R21I the protein stability index was 2.93. For R21A, the protein stability index was 3.28. Variant R21W has a protein stability index of 1.43. Variant R21V has a protein stability index of 3.2. For R21D, the protein stability index was 1.56. For R21H, the protein stability index was 3.05. Work on R21F yielded a protein stability index of 2.13. R21Y gave a protein stability index of 2.44. Variant I24K has a protein stability index of 1.99. I24H showed a protein stability index of 2.22. Work on I24Y yielded a protein stability index of 1.56. Variant I24S has a protein stability index of 1.84. I24E showed a protein stability index of 1.85. I24W showed a protein stability index of 2.39. Work on I24R yielded a protein stability index of 2.43. I24T showed a protein stability index of 1.46. I24D gave a protein stability index of 2.47. For I24N, the protein stability index was 1.76. For I24G, the protein stability index was 1.55. For I24P, the protein stability index was 2.12. In the case of I24C, the protein stability index is reported as 2.23. With I24Q the protein stability index was 1.67. Variant I24V has a protein stability index of 2. In the case of I24L, the protein stability index is reported as 2.15. Variant I24A has a protein stability index of 1.74. Variant I24M has a protein stability index of 1.7. In the case of I24F, the protein stability index is reported as 2.76. Variant M22P has a protein stability index of 2.03. With M22W the protein stability index was 2.45. M22I showed a protein stability index of 3.42. For M22C, the protein stability index was 2.94. M22R showed a protein stability index of 1.94. With M22H the protein stability index was 2.28. With M22Y the protein stability index was 2.9. In the case of M22T, the protein stability index is reported as 2.21. M22G showed a protein stability index of 2.51. M22Q gave a protein stability index of 1.5. Work on M22N yielded a protein stability index of 1.99. In the case of M22S, the protein stability index is reported as 1.64. M22E showed a protein stability index of 2.23. Variant M22F has a protein stability index of 1.35. Work on M22K yielded a protein stability index of 1.98. With M22L the protein stability index was 2.39. For M22V, the protein stability index was 2.23. M22D gave a protein stability index of 2.1. Work on M22A yielded a protein stability index of 1.93. In the case of F20H, the protein stability index is reported as 1.47. For F20A, the protein stability index was 2.23. For F20C, the protein stability index was 2.15. F20V gave a protein stability index of 2.97. Work on F20S yielded a protein stability index of 2.28. F20M gave a protein stability index of 3.12. F20L gave a protein stability index of 2.2. In the case of F20W, the protein stability index is reported as 3.38. With F20P the protein stability index was 1.75. In the case of F20R, the protein stability index is reported as 2.8. F20N gave a protein stability index of 1.95. In the case of F20K, the protein stability index is reported as 2.4. F20Q showed a protein stability index of 1.58. With F20T the protein stability index was 2.21. In the case of F20Y, the protein stability index is reported as 2.56. For F20D, the protein stability index was 2.43. F20I showed a protein stability index of 3.6. F20G gave a protein stability index of 1.74. F20E gave a protein stability index of 1.97. Work on Q23D yielded a protein stability index of 2.73. With Q23I the protein stability index was 2.22. With Q23E the protein stability index was 2.6. Q23P gave a protein stability index of 1.99. Work on Q23Y yielded a protein stability index of 3.27. Q23V showed a protein stability index of 2.56. With Q23W the protein stability index was 3.07. Q23H showed a protein stability index of 3.27. Work on Q23R yielded a protein stability index of 3.21. With Q23C the protein stability index was 3.21. In the case of Q23N, the protein stability index is reported as 1.42. In the case of Q23S, the protein stability index is reported as 5.04. In the case of Q23T, the protein stability index is reported as 2.48. For Q23L, the protein stability index was 3.03. Q23F gave a protein stability index of 2.13. Variant Q23M has a protein stability index of 3.2. With Q23K the protein stability index was 1.54. Work on Q23G yielded a protein stability index of 3.25. Q23A showed a protein stability index of 3.37. Work on C19N yielded a protein stability index of 3.42. C19Q showed a protein stability index of 2.3. C19W showed a protein stability index of 3.2. Work on C19H yielded a protein stability index of 2.96. With C19K the protein stability index was 1.59. Variant C19V has a protein stability index of 3.28. Variant C19Y has a protein stability index of 3.22. In the case of C19L, the protein stability index is reported as 2.02. Variant C19T has a protein stability index of 2.24. C19R gave a protein stability index of 3.1. With C19I the protein stability index was 4.78. With C19P the protein stability index was 2.68.
